Experimental findings from the supplement of paper PMC12042874 are described below.

± gives the uncertainty stated by the source.

This series can be described thus: amyloid nucleation score (Sup35N fusion, yeast selection) (log enrichment); library NNK2; higher = more nucleation; inactive = no reads after selection. In short, it runs like this:
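For the nucleation score, DiMSum gave the log enrichment of output over input reads, centred on the mode score of non-aggregating sequences. Psi-negative yeast expressing Sup35N fused to peptides of 20 random codons were induced with 100 μM copper sulfate for 24 hours and grown 7 days at 30°C on medium lacking adenine and uracil. Input and output plasmid inserts were Illumina-sequenced, and sequences with under 100 input reads were excluded.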

For AIRVLCKEYSQSDRMNEWLN, the amyloid nucleation score result is “inactive”.

In the case of RWEDRPSVTRRSGVRNGFSG, the amyloid nucleation score entry was “inactive”. In turn, AMQLCSFTPFSTYNFLSYDS registered an amyloid nucleation score of -0.685 ± 0.37. On to WLMGVRG, for which the amyloid nucleation score is -1.01 ± 0.64. With TVPRFEKHFRAVVNLLGRND the figure was 0.277 ± 0.46; with PWCTWSFVADLENSYRRWVR, 2.57 ± 0.12; with CMFGEEFGLNKNVVGSLGLY, “inactive”. RCFSTHVAQDQLFVY: the amyloid nucleation score entry was “inactive”.

For SWCIMALRTF, the amyloid nucleation score was 0.249 ± 0.65. KWLTAHAAYLWSETEVRMVV: the amyloid nucleation score is 0.673 ± 0.27.

As for ILYGVLTPYFHAVI, the amyloid nucleation score was -0.003 ± 0.65.

Consider TIWRCFLT, for which the amyloid nucleation score was 0.685 ± 0.33. With TVLILPPHTRSDINFMVHYT the figure was 4.43 ± 0.063. With VFFRLMKPNFGLP the figure was 0.199 ± 1.1; with SIGPQRHLPYLLVFVYWTLS, 0.309 ± 0.8; with VLVCSANRLCNEPTIDRVLG, 4.14 ± 0.057.

Consider ILNPFCTRFK, for which the amyloid nucleation score is -2.26 ± 0.64. With SFKYCMMISGGF the figure was 4.503 ± 0.041.

In turn, ISQAWVS yielded an amyloid nucleation score of -0.329 ± 0.25. HFSVMCTTRSKRLSIKPEWR gave an amyloid nucleation score of 4.41 ± 0.097. With NYNLRDHSDVRVRCSLALSE the entry was “inactive”; with SQIRGESSYYCLPSFSLLFF, 6.215 ± 0.057.

TIFMAYTWLNYTVAFLSNVR yielded an amyloid nucleation score of -1.01 ± 0.61. With RRWEL the figure was 0.687 ± 0.34; with IDQLLGLDRSCCVNL, 0.387 ± 0.8; with GEQSDFSSSYSYLLWKVWDG, -1.2 ± 0.36. Regarding LCEALRFVIYCKLTSFVPFN, the amyloid nucleation score was -0.632 ± 0.61. Turning to FYFWVSDYQLGDMVNIMNLS, the amyloid nucleation score is -0.184 ± 1.1. With VSLINFFVNL, the amyloid nucleation score came to 8.418 ± 0.056.

For the substance ITTSSSWCATILSPQFFKDV, the amyloid nucleation score is -0.569 ± 0.44. In turn, FSVRLMAVRQGRLTAVGKSD displayed an amyloid nucleation score of 0.331 ± 0.42. With PMISFSLTMRDNCYSGWLCN the figure was 1.63 ± 0.21; with TYGLWRFGTRGKDEFKSPNR, 6.16 ± 0.058; with IVLFVKVDLLIDLISPL, 0.049 ± 0.56. With DDFRGIAGIWWRG the figure was 0.785 ± 0.51. With LNTEMGSLKNL the figure was 3.08 ± 0.06; with CSFHVGNLTWWANVEARVVV, 0.176 ± 0.29. In the case of CAPVCFFRGSLRCRSRLTWR, the amyloid nucleation score was -0.221 ± 1.1. With CIMRGREQDFWQSDY the figure was 0.116 ± 0.23; with RGYVRLSHTGTTRHHP, “inactive”. QGVDNGDRGRGRNLWASMRR gave an amyloid nucleation score of 1.34 ± 0.39.

Turning to KGLLCTHESMGVYRDSWPCY, the amyloid nucleation score is -0.067 ± 0.49. With DVLCS the figure was 0.626 ± 0.57; with VWMDIRSYLVGGLLTAVPRD, 0.481 ± 0.2; with CSRRNRRIGVALRFIFLDIY, -0.956 ± 0.78. With YHKAIFFGF the figure was -0.563 ± 0.64; with WVTTNMCYTHQFMFGANLVV, 0.276 ± 1; with YRCSDLYK, 2.47 ± 0.29. With TNHFN the figure was -1.08 ± 0.61; with LLNFYGGMWRGYLTLRYVFG, 0.201 ± 0.6. On to IGCFTLR, for which the amyloid nucleation score amounted to 1.58 ± 0.088. With IDLSLNLGVRGVRQDETLFA the entry was “inactive”. With HQMQACLVLG the figure was 5.736 ± 0.053; with GDYTYRG, 0.773 ± 0.66; with VAMSCGRSYLKCLMACGLHM, -0.053 ± 1. With WIDGVFTIVSFYMELEGIRV the entry was “inactive”. Regarding RYKSFMVQQSIDNRVLVGVC, the amyloid nucleation score stood at 0.241 ± 0.8. With RGRCFWLEFTFISWLSNDVA the entry was “inactive”; with NPWIAIKWHNTVFLRHIWQM, -0.494 ± 0.22. With REIARGRMYLGSPGLVDIVA the figure was -0.232 ± 0.76; with KDSITAWCFVVLSVMTRVEY, -0.733 ± 1.1; with CKLPDVTIMDYLLPFM, -0.333 ± 0.41.

SNSDIWHNARHPIDLATYC had an amyloid nucleation score of 0.293 ± 0.61. For the substance VSVDHSDFRLNAVSE, the amyloid nucleation score was 1 ± 0.17.

In the case of TWNSANFFIKLRQSVFYLSR, the amyloid nucleation score is -1.46 ± 1.1. With AVLLPNWSAYSGKNTSYVPV the figure was 2.13 ± 0.1. With SYIHRAWAYM the entry was “inactive”; with LNRCLDHRWIPKCVC, 1.36 ± 0.46. With KFLLGSVGTLQSNPTLFHLR the figure was 0.095 ± 0.33. IGSRS registered an amyloid nucleation score of -1.25 ± 0.48. Consider RMGCLFCRESNWILSFYSVS, for which the amyloid nucleation score is 5.87 ± 0.074.

GMYYPREIEFLAFWSTTRGR came in with an amyloid nucleation score of -0.956 ± 1. With VGNIGSSTC the figure was -0.159 ± 0.45; with NSINRMVVQLVG, 3.9 ± 0.087. With CPSWSSLLISPYYYSSVSHK the figure was -0.443 ± 0.79. With NDWSHRSIFMMVCFWGVHSH the entry was “inactive”. Regarding DFANFMGCMVNEAPRLHFAL, the amyloid nucleation score turned out to be 0.404 ± 0.38. With TVWGYSSDLKLLEFISIGTQ the figure was 2.71 ± 0.12.

CGGAGRMLWGLADSNAALEA: the amyloid nucleation score is 0.163 ± 0.63. With TLKRSRPVLYNLYNGFVVVA the figure was 2.25 ± 0.21. Substance SFRFGEKDCWLDCCRVMRKK gave an amyloid nucleation score of 5.59 ± 0.068. With VMLHPSNSLALNCLT the figure was -0.297 ± 0.28; with LNRISYHTYSILPNVTIMKS, 0.498 ± 0.54.

ILVYASWLGYHLDICSGFRS registered an amyloid nucleation score of 1.64 ± 0.089.

In turn, YYTLWVTLTRLTNC yielded an amyloid nucleation score of -0.288 ± 0.5. With YVDTRLKTSVLFRK, the amyloid nucleation score worked out at 3.93 ± 0.043.

In turn, ISLAINLCALIDATRDWSPC came in with an amyloid nucleation score of 6.12 ± 0.05. With SLFLDDKEWMKGITKFLMDP the figure was 0.419 ± 0.51; with FTLLSMNRSGFIIRVPDAV, 0.035 ± 0.24. With SRIMALTMCFYTNRGRELVN the figure was -1.19 ± 0.38. With SYVDNWNISRVYLRLTYSVY the figure was -0.96 ± 0.49.

Turning to RKVLWKSDTSSLLNEWSIAH, the amyloid nucleation score was -0.178 ± 0.49. With YCGRWELAVWY the figure was -0.679 ± 1.1; with PGLLQGLKSGWSKTYKLLTR, 0.808 ± 0.8. With RTLPFWWLNLFWFLNNMDTF the figure was -1.8 ± 1.1; with YIMTYDYVCKNVGWYFTRC, “inactive”. With WLKVLG the figure was 4.571 ± 0.028. The substance YSISQLWYTLTIHVPFHPLK displayed an amyloid nucleation score of -0.114 ± 0.15.

Consider EVANGKFCNFGSLYDLMWWE, for which the amyloid nucleation score was -0.348 ± 0.76.

Take VVRGRSGLCNMFWCDRQRRL: the amyloid nucleation score is -0.63 ± 0.34. Take PSSDRMSKCVFRVRNCQEAL: the amyloid nucleation score amounted to 0.157 ± 0.55. With PCGNPLQRYS the figure was 1.62 ± 0.4; with PCSANWRLYIANISGSFPMR, 5.34 ± 0.083.
